One molecule from article PMC7286819, “SIRT7 activates p53 by enhancing PCAF-mediated MDM2 degradation to arrest the cell cycle” (Oncogene, 2020) can be followed below.

This test concerns the target T1, Full-length His-PCAF fusion protein (UniProt Q92831 1-832).
T1 construct: PCAF, full length, cDNA cloned into pET-28a; source: E. coli, purified
Description: pull-down; GST or GST-SIRT7 on glutathione-Sepharose 4B beads incubated with 6xHis-tagged PCAF from E. coli at 4 C overnight; washed with TEN buffer (0.5% NP-40, 20 mM Tris pH 7.4, 0.1 mM EDTA, 300 mM NaCl); immunoblot. The following applies: both partners purified. (Immunoblotting shows a protein as a band on a membrane.)

T1 sequence (Q92831 whole entry, the tested form may be a part): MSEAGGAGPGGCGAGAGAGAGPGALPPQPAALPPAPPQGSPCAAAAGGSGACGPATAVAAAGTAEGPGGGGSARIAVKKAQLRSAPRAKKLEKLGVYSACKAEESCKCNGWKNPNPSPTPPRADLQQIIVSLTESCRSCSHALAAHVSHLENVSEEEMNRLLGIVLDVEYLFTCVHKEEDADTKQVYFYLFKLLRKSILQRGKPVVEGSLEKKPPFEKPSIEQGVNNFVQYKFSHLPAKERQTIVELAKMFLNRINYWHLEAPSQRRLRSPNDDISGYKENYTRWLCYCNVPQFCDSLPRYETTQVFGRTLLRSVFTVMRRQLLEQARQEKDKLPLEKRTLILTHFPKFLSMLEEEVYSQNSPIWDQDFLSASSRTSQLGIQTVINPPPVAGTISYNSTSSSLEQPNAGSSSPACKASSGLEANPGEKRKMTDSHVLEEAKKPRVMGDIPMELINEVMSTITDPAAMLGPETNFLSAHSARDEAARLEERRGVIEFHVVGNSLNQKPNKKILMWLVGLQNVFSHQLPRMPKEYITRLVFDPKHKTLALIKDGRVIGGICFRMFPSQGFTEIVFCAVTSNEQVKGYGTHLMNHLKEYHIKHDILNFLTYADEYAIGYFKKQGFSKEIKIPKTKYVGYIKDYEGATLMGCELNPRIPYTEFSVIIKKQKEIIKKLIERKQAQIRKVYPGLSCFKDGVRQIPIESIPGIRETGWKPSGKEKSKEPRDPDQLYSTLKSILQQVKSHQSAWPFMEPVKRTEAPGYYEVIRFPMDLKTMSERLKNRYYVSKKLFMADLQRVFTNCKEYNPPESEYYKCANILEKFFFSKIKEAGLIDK

B1: full-length GST-tagged SIRT7 (natural protein, UniProt Q9NRC8 1-400, looked up)
chain: MAAGGLSRSERKAAERVRRLREEQQRERLRQVSRILRKAAAERSAEEGRLLAESADLVTELQGRSRRREGLKRRQEEVCDDPEELRGKVRELASAVRNAKYLVVYTGAGISTAASIPDYRGPNGVWTLLQKGRSVSAADLSEAEPTLTHMSITRLHEQKLVQHVVSQNCDGLHLRSGLPRTAISELHGNMYIEVCTSCVPNREYVRVFDVTERTALHRHQTGRTCHKCGTQLRDTIVHFGERGTLGQPLNWEAATEAASRADTILCLGSSLKVLKKYPRLWCMTKPPSRRPKLYIVNLQWTPKDDWAALKLHGKCDDVMRLLMAELGLEIPAYSRWQDPIFSLATPLRAGEEGSHSRKSLCRSREEAPPGDRGAPLSSAPILGGWFGRGCTKRTKRKKVT
notes: SIRT7, full length, cDNA cloned into pGEX-4T1; also called GST-SIRT7; full-length (FL) SIRT7; source: E. coli, purified on glutathione-Sepharose 4B beads
As to B1, the binding result is given as “binds”.
